Measurements as given in publication PMC9464592 (Nature, 2022).

Tests used:
Assay in all cases: cryo-EM structure
[1] = target: T1, N-terminally Flag-tagged MIOS (human, UniProt Q9NXC5 1-875)
T1 sequence: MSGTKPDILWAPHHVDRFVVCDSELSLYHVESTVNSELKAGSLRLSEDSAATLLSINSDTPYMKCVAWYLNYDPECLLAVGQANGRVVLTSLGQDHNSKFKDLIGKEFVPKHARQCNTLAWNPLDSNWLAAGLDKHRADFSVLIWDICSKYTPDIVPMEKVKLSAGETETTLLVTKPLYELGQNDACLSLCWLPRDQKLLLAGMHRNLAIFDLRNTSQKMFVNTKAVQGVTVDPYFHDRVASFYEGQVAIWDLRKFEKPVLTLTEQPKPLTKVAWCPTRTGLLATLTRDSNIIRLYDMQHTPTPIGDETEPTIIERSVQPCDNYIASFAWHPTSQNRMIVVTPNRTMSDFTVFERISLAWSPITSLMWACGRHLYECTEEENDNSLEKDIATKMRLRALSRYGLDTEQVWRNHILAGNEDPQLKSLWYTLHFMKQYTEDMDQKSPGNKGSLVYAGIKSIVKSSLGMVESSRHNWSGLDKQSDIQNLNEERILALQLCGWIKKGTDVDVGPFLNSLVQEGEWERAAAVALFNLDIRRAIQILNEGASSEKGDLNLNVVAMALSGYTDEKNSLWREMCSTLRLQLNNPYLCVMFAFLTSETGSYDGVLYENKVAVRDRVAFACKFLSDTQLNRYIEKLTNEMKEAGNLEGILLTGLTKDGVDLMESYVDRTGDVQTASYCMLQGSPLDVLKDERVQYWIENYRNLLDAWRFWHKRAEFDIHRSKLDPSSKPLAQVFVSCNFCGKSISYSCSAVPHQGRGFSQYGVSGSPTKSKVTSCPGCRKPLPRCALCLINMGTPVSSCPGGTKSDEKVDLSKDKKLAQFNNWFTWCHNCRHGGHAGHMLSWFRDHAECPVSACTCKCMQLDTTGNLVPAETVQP

[2] = target: T2, tag-free WDR24 (human, UniProt Q96S15 1-790)
T2 sequence: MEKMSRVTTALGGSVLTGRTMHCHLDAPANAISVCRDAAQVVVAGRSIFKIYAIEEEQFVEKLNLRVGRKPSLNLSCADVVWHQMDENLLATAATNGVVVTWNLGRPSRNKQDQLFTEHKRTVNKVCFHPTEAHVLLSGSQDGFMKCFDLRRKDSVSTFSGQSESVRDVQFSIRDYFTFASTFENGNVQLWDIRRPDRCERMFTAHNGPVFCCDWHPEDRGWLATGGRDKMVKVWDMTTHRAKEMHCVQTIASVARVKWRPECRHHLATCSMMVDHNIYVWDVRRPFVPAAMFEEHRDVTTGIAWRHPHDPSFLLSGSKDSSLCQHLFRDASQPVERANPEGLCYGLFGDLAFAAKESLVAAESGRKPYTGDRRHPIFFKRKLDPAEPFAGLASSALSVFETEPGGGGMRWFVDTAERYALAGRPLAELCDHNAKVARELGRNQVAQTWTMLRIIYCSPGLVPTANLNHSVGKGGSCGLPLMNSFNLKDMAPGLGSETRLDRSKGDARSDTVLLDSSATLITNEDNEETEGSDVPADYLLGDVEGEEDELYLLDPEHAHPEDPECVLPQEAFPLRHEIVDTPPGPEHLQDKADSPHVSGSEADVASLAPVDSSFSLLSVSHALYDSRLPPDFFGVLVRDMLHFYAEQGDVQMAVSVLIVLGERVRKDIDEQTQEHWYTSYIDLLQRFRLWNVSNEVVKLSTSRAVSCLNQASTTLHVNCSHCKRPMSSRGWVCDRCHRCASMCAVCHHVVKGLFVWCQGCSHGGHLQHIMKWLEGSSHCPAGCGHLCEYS

[3] = target: T3, tag-free WDR59 (human, UniProt Q6PJI9 1-974)
T3 sequence: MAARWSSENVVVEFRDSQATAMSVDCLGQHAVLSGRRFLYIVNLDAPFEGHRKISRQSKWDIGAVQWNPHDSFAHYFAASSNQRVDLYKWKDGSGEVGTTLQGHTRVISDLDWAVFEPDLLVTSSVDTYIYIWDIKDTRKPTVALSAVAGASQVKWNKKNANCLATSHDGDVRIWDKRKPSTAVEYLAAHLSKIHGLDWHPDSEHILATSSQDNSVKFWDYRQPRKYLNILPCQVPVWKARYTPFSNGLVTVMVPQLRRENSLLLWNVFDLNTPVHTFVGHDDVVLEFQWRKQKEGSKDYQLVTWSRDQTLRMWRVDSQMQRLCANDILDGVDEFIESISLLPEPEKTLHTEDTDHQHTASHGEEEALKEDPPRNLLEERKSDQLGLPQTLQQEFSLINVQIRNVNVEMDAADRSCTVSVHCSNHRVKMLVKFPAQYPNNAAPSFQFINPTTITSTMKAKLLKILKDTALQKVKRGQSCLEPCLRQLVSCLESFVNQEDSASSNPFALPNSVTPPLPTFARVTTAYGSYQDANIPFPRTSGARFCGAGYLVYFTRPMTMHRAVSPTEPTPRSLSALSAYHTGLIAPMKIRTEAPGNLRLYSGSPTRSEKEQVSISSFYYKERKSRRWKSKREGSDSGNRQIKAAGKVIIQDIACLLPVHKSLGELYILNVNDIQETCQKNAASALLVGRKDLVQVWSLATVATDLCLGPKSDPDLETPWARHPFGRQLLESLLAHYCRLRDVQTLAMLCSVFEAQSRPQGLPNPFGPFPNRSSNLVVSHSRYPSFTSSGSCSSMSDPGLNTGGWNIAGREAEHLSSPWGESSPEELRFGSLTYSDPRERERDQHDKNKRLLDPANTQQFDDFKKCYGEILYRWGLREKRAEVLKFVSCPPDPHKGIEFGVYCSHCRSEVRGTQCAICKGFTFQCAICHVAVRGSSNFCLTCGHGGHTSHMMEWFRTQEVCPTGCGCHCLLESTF

Measured: binding result

B1: tag-free SEC13 (natural protein, human)
chain: MVSVINTVDTSHEDMIHDAQMDYYGTRLATCSSDRSVKIFDVRNGGQILIADLRGHEGPVWQVAWAHPMYGNILASCSYDRKVIIWREENGTWEKSHEHAGHDSSVNSVCWAPHDYGLILACGSSDGAISLLTYTGEGQWEVKKINNAHTIGCNAVSWAPAVVPGSLIDHPSGQKPNYIKRFASGGCDNLIKLWKEEEDGQWKEEQKLEAHSDWVRDVAWAPSIGLPTSTIASCSQDGRVFIWTCDDASSNTWSPKLLHKFNDVVWHVSWSITANILAVSGGDNKVTLWKESVDGQWVCISDVNKGQGSVSASVTEGQQNEQ
binds: all assays above
